Laboratory results from the supplement of paper PMC9170038.

Tested on: K4 kissing-loop RNA reporter
Assay: apparent KD of K4 kissing-loop reporter; higher = weaker reporter binding
Details: Eterna round: R107
Description: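 RNA-MaP round R107: designed RNA switches with theophylline, tryptophan, arginine or FMN aptamers are transcribed on-chip within common flanks. They are titrated with a labelled K4 kissing-loop RNA reporter in RNA-MaP buffer (100 mM Tris pH 7.5, 80 mM KCl, 4 mM MgCl2), without ligand or with the indicated ligand. Median apparent KD per design.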

[1] = input ligand: theophylline 20 uM
[2] = input ligand: tryptophan 2.4 mM
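Further: bound reporter read as fluorescence of individual clusters on recovered sequencing chips by microscopy, with normalized cluster intensities fitted with a binding model.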

| Sequence | apparent KD of K4 kissing-loop reporter (input ligand: FMN 200 uM) [nM] | apparent KD of K4 kissing-loop reporter (input ligand: arginine 13.2 mM) [nM] | apparent KD of K4 kissing-loop reporter (input ligand: none) [nM] | apparent KD of K4 kissing-loop reporter [1] [nM] | apparent KD of K4 kissing-loop reporter [2] [nM] |
| --- | --- | --- | --- | --- | --- |
| CCUAUCUCAUACGAUACCAGUCAAAUAAAUUAUAACGAGUGAUGUUCGAAAUGCCAUCACGACCCUUGGCAGCGUAUGGGAUAGG [Ex Theophylline B K4 1] | 304 | 123 | 212 | 186 | 125 |
| AGAGUUAUGCGAGGAUAUGCAGUUAGUACUCAAAGAGUACUAACGCAGAGUGAUGUUCUGUGAAAAGCAGAAGGUGCAUAACUCA [Omei KL FMN B SS B v6] | 155 | 650 | 693 | 597 | 669 |
| GAAUAAUAACAUGAGUGAUGUUCAUGUAAACGAGGACCGGUACGGCCGCCACUCGUUUCUCAUGUAAGCCGUACCAAUAACAAUA [KL-XTryp-A5 #analogue] | 146 | 142 | 151 | 147 | 237 |
| AAGGGCUAGGCGGCCGCCACUGGUCGUGUACACAUACGAACCAGUGAUGUUGGUAUUGUAUGCGACAGGACCGGGCCUAGCCGAA [Exclusion - Tryptophan B (Freestyle 27)] | 313 | 194 | 249 | 364 | 291 |
| CGAGUGAUGUUCGUUCGUUUAUUUCGGUGACAGGAUAUGCGGAAACGCAGAAGGGUCACCUUUGGGUUACCGGAAUUAACGUUAU [Ex FMN A 30] | 640 | 455 | 561 | 414 | 584 |
| AAGAGGUAGGCGGCCGCCACUUGUUGUGAACACAUACGAGCCAGUGAUGUUGGUAUUGUGUGCGGAAGGACCGGGCCUACCUGAA [Exclusion - Tryptophan B (Freestyle 21)] | 146 | 173 | 136 | 46 | 140 |
| UGGAGUUGACGAAAAGUCAACUCCUGAGAAGGAGCGGACGAAAGUCCAGGUAGGUCGCUCACUACCAGUGAUGUUGGUACUAAAA | 160 | 157 | 141 | 66.6 | 203 |
| CCUAUCUCAUACGAUACCAGUCUAUUAAAACGAGUGAUGUUCGAAUAUUUGCCAUAUAAUGACCCUUGGCAGCGUAUGGGAUAGG [Ex Theophylline B K4 9] | 221 | 229 | 244 | 230 | 190 |
| UGAUAGGACAGAAGGAGCGGAAGUGAUGUUUCCAAUGGAUAAAAGGUGUCAAAGACACCCUUCCAGGUAGGUCGCUGUCCUAUCU [ArgBX 17 #Palindromic #SwitchBubble #StaticStem] | 146 | 160 | 148 | 141 | 132 |
| CCAUCGCUAUUCGAUACCAGUCAGGAGGUCUUUGGCCUCCUAUUGGAGUGAUGUUCCAUAGACCCUUGGCAGCGAAUAGUGAUGG [Theophylline B K4 15] | 822 | 255 | 834 | 613 | 510 |
| CCGAUGGGUACAGGAUAUGCCAGUGAUGUUGGUUUAGAUGGACCCAGAAGGAGACACCAGACGGAGGCAGAAGGGUAGCAAGGGA [Raarriis] | 140 | 108 | 106 | 100 | 105 |
| CAGAACUUGUAUACAGGGUAUGUAAGAGAUACCAGUCAAAUUAAAGACCCUUGGCAGCUCAGGCGAGUGAUGUUCGCAGGCUAAC [Exclusion Theophylline A GF 18] | 103 | 118 | 115 | 116 | 99 |
| UGACUGGACUGAAGGAGCGCUUAACUCCUAGUGAUGUUAGGAUAACGAGACAAAGUCUCGAAGCAGGUAGGUCGCAGUCUAGUCU | 157 | 104 | 118 | 126 | 128 |
| AAAUAGAUCAGUCACCCAGUGAUGUUGGAAGGAGCGUGCGAAAGCACAGGUAGGUCGCCAAAACCUAAGUGGCUGAUCAAAAUAA [#SwitchBubble 4 #K4Early] | 838 | 445 | 819 | 523 | 587 |
| AAGCGUGUGGCGGCCGCCACUAGUCUCCAGUGAUGUUGGAGAUAUCACGUAAGUGAUAUCCGACAUAGGACCGGGCCAUAUGGAA [Same State - Tryptophan B (Freestyle 22)] | 587 | 299 | 813 | 612 | 207 |
| AUUUAUUCGUACUACUAGUGAUGUUAGUAACGAGGACCGGUACGGCCGCCACUCGAUUUGGCGAUUUUGUAUUUUUUAUUCUAUA [JR_SSTryptoA_Sub011] | 324 | 321 | 359 | 328 | 192 |
| AAAAGCCAGCAAGGAUAUACGCGCGAAGCAUCCAUGGUGCCAGUUCCAGUGAUGUUGGACCACAUCGUAGAAGGUGCGCGGCUCA [theeternabot_sameState_KL_FMN_B_33] | 440 | 223 | 266 | 224 | 274 |
| GUGGCGACGCAAGGAUAUGGGUGCUAGUGAUGUUAGCCUUUGCUCCAUGUCACGUGGUCUGCACACCCAGAAGGUGCGGGAAGAU [theeternabot_exclusion_KL_FMN_B_9] | 482 | 293 | 327 | 307 | 354 |
| AAAAUAAUCCAGUGAUGUUGGUGUCCAGAUACCAGCGACGAAAGUCGCCCUUGGCAGCUGUGGACGUACAAAAUAAGUACGUCCU | 476 | 331 | 559 | 251 | 431 |
| CCAAGGUGCUUCUGUUCAGUGAUGUUGGUACGAGGACCGGUACGGCCGCCACUCGCCGUACAAUCGCUAGUUAAUCAUUGGCAAG [theeternabot_exclusion_KL_Trp_A_40] | 667 | 408 | 660 | 441 | 256 |
| CGGUACGUCGCAGGAUAUGUAAAUGUAAGUGAUGUUUACAUACCAUGCUGGCGAAAGCCAGCAUGGACAGAAGGGCGACGUACCG | 111 | 354 | 470 | 328 | 506 |
